Results on 50 sequences are retold here after the supplement of paper PMC9112550, “Optimization of the antimicrobial peptide Bac7 by deep mutational scanning” (BMC Biology, 2022).

This data set concerns Escherichia coli TOP10. The data set can be described thus: shrunken log2 fold change of peptide-encoding DNA abundance (4.5 h post-induction vs induction); higher = less antimicrobial activity (less host growth inhibition). The settings on record: time post-induction: 4.5 h; library: site-saturation at positions 5, 18, 19, 20.
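Also: peptides expressed intracellularly from a pBAD plasmid library in pooled LB shake-flask culture, induced with 0.3% L-arabinose, DNA abundance read by NGS, three biological replicates, DESeq2 with apeglm shrinkage.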

As to RRIRERPPRLPRPRPRPDNTPRP, the “shrunken log2 fold change” value is -0.489.
Under RRIRCRPPRLPRPRPRPQWNPRP stands 0.618.
As for RRIRWRPPRLPRPRPRPRNLPRP, the figure is 0.0777; as for RRIRKRPPRLPRPRPRPMMFPRP, -0.0431; as for RRIRIRPPRLPRPRPRPIYSPRP, -0.946.
Under RRIRERPPRLPRPRPRPHCHPRP stands -0.657; under RRIRQRPPRLPRPRPRPYMKPRP, -0.521.
For RRIRARPPRLPRPRPRPQAYPRP, the “shrunken log2 fold change” value was -0.0327.
Under RRIRRRPPRLPRPRPRPIKIPRP stands -0.0791; under RRIRTRPPRLPRPRPRPPAVPRP, 0.292; under RRIRWRPPRLPRPRPRPFLPPRP, -0.687.
For RRIRHRPPRLPRPRPRPHQAPRP, the “shrunken log2 fold change” value was -0.0163.
As for RRIRQRPPRLPRPRPRPSAQPRP, the figure is -0.223; as for RRIRNRPPRLPRPRPRPCMHPRP, -0.0807; as for RRIRVRPPRLPRPRPRPRHRPRP, 0.0675.
Under RRIRSRPPRLPRPRPRPAIGPRP stands -0.0608.
As for RRIRCRPPRLPRPRPRPCRQPRP, the figure is 0.0584.
On to RRIRTRPPRLPRPRPRPVQKPRP, for which the “shrunken log2 fold change” value is 0.296.
As for RRIRLRPPRLPRPRPRPKYWPRP, the figure is -0.131; as for RRIRMRPPRLPRPRPRPSTGPRP, 0.17; as for RRIRHRPPRLPRPRPRPKQFPRP, -0.108.
As to RRIRSRPPRLPRPRPRPNCCPRP, the “shrunken log2 fold change” value is -0.105.
Take RRIRYRPPRLPRPRPRPFSDPRP: the “shrunken log2 fold change” value was -0.03.
As for RRIRERPPRLPRPRPRPKMFPRP, the figure is -0.000277; as for RRIRFRPPRLPRPRPRPCQGPRP, -0.198.
Regarding RRIRPRPPRLPRPRPRPCYAPRP, the “shrunken log2 fold change” value was -0.414.
Under RRIRMRPPRLPRPRPRPIVRPRP stands -0.0408; under RRIRERPPRLPRPRPRPYSQPRP, -0.443.
Under RRIRSRPPRLPRPRPRPWWAPRP stands -0.0137.
As for RRIRTRPPRLPRPRPRPNRGPRP, the figure is -0.0939; as for RRIRLRPPRLPRPRPRPNPGPRP, -0.213; as for RRIRERPPRLPRPRPRPHGPPRP, 0.139.
RRIRFRPPRLPRPRPRPQYVPRP: the “shrunken log2 fold change” value was -0.368.
For the sequence RRIRSRPPRLPRPRPRPMIMPRP, the “shrunken log2 fold change” value is -0.0825.
Under RRIRGRPPRLPRPRPRPACKPRP stands 0.923; under RRIRHRPPRLPRPRPRPSQIPRP, -0.0599.
As for RRIRLRPPRLPRPRPRPFKPPRP, the figure is 0.2.
Under RRIRDRPPRLPRPRPRPTGYPRP stands 0.0485.
Consider RRIRDRPPRLPRPRPRPGDIPRP, for which the “shrunken log2 fold change” value was -0.0568.
Under RRIRSRPPRLPRPRPRPEEHPRP stands -0.0107.
Under RRIRFRPPRLPRPRPRPQQQPRP stands 0.0282; under RRIRGRPPRLPRPRPRPRNHPRP, 0.563; under RRIRHRPPRLPRPRPRPFTVPRP, -0.0532.
Under RRIRSRPPRLPRPRPRPNQDPRP stands -0.3; under RRIRERPPRLPRPRPRPPWMPRP, -0.22; under RRIRERPPRLPRPRPRPMEPPRP, 0.0704.
For RRIRCRPPRLPRPRPRPRPTPRP, the “shrunken log2 fold change” value stood at 0.808.
As for RRIRFRPPRLPRPRPRPCNWPRP, the figure is 0.128.
As for RRIRDRPPRLPRPRPRPTYLPRP, the figure is 0.00451; as for RRIRHRPPRLPRPRPRPAREPRP, 0.256.
